Laboratory results from article PMC4138323 (RNA, 2014).

B1: maltose-binding protein (MBP)-tagged full-length human DDX6 (natural protein)
chain: MSTARTENPVIMGLSSQNGQLRGPVKPTGGPGGGGTQTQQQMNQLKNTNTINNGTQQQAQSMTTTIKPGDDWKKTLKLPPKDLRIKTSDVTSTKGNEFEDYCLKRELLMGIFEMGWEKPSPIQEESIPIALSGRDILARAKNGTGKSGAYLIPLLERLDLKKDNIQAMVIVPTRELALQVSQICIQVSKHMGGAKVMATTGGTNLRDDIMRLDDTVHVVIATPGRILDLIKKGVAKVDHVQMIVLDEADKLLSQDFVQIMEDIILTLPKNRQILLYSATFPLSVQKFMNSHLQKPYEINLMEELTLKGVTQYYAYVTERQKVHCLNTLFSRLQINQSIIFCNSSQRVELLAKKISQLGYSCFYIHAKMRQEHRNRVFHDFRNGLCRNLVCTDLFTRGIDIQAVNVVINFDFPKLAETYLHRIGRSGRFGHLGLAINLITYDDRFNLKSIEEQLGTEIKPIPSNIDKSLYVAEYHSEPVEDEKP
B2: GST–CNOT1_(1088–1312) (domain or fragment)
chain: ENIQEKIAFIFNNLSQSNMTQKVEELKETVKEEFMPWVSQYLVMKRVSIEPNFHSLYSNFLDTLKNPEFNKMVLNETYRNIKVLLTSDKAAANFSDRSLLKNLGHWLGMITLAKNKPILHTDLDVKSLLLEAYVKGQQELLYVVPFVAKVLESSIRSVVFRPPNPWTMAIMNVLAELHQEHDLKLNLKFEIEVLCKNLALDINELKPGNLLKDKDRLKNLDEQLS

Experiments:
Assay in all cases: pull-down
GST–CNOT1_(1075–1575) = GST–CNOT1_(1075–1575) (human, UniProt A5YKK6-2 1075-1575)
Chain of GST–CNOT1_(1075–1575) (A5YKK6 1080-1580): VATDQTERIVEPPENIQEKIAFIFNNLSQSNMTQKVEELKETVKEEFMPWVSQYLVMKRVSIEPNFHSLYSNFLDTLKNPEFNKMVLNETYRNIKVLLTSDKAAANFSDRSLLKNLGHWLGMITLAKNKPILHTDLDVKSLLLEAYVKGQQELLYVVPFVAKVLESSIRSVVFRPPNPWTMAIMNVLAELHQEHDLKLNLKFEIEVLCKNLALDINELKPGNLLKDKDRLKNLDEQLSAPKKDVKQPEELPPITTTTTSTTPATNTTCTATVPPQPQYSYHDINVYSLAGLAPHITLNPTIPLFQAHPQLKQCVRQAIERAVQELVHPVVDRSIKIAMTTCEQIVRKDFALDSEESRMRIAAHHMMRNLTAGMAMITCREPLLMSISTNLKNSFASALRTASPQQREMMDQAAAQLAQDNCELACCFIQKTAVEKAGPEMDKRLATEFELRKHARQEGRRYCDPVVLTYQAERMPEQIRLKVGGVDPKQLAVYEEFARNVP

[1] = target: B1
[2] = target: T1, MBP–DDX6 N-term (residues 1–302) (human, UniProt P26196 1-302)
T1 sequence: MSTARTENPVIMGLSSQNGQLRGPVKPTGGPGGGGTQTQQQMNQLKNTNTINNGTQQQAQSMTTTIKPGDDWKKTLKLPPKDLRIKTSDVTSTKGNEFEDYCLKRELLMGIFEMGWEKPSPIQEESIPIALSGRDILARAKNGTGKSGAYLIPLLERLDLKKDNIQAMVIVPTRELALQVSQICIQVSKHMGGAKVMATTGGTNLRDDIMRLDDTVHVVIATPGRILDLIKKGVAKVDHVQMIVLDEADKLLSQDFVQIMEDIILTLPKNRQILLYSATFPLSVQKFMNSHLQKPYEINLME

GST–CNOT1_(1088–1312) = target: B2

B1
binding result (GST–CNOT1_(1075–1575)): binds

B2
binding result [1]: binds | binding result [2]: binds

B3: MBP–DDX6 C-term (residues 303–483) (domain or fragment)
chain: ELTLKGVTQYYAYVTERQKVHCLNTLFSRLQINQSIIFCNSSQRVELLAKKISQLGYSCFYIHAKMRQEHRNRVFHDFRNGLCRNLVCTDLFTRGIDIQAVNVVINFDFPKLAETYLHRIGRSGRFGHLGLAINLITYDDRFNLKSIEEQLGTEIKPIPSNIDKSLYVAEYHSEPVEDEKP
binding result (GST–CNOT1_(1088–1312)): binds
